Assay results from IntAct's records for PubMed 19536138.

How the values were obtained:
clh1_rat Cltc [1] = molecular target: clh1_rat Cltc (UniProt P11442)
clh1_rat Cltc [2] = molecular target: clh1_rat Cltc (UniProt P11442); remark: listed apart in the source
clh1_rat Cltc [3] = molecular target: clh1_rat Cltc (UniProt P11442); remark: listed apart in the source

Sequence of clh1_rat Cltc (P11442 whole entry): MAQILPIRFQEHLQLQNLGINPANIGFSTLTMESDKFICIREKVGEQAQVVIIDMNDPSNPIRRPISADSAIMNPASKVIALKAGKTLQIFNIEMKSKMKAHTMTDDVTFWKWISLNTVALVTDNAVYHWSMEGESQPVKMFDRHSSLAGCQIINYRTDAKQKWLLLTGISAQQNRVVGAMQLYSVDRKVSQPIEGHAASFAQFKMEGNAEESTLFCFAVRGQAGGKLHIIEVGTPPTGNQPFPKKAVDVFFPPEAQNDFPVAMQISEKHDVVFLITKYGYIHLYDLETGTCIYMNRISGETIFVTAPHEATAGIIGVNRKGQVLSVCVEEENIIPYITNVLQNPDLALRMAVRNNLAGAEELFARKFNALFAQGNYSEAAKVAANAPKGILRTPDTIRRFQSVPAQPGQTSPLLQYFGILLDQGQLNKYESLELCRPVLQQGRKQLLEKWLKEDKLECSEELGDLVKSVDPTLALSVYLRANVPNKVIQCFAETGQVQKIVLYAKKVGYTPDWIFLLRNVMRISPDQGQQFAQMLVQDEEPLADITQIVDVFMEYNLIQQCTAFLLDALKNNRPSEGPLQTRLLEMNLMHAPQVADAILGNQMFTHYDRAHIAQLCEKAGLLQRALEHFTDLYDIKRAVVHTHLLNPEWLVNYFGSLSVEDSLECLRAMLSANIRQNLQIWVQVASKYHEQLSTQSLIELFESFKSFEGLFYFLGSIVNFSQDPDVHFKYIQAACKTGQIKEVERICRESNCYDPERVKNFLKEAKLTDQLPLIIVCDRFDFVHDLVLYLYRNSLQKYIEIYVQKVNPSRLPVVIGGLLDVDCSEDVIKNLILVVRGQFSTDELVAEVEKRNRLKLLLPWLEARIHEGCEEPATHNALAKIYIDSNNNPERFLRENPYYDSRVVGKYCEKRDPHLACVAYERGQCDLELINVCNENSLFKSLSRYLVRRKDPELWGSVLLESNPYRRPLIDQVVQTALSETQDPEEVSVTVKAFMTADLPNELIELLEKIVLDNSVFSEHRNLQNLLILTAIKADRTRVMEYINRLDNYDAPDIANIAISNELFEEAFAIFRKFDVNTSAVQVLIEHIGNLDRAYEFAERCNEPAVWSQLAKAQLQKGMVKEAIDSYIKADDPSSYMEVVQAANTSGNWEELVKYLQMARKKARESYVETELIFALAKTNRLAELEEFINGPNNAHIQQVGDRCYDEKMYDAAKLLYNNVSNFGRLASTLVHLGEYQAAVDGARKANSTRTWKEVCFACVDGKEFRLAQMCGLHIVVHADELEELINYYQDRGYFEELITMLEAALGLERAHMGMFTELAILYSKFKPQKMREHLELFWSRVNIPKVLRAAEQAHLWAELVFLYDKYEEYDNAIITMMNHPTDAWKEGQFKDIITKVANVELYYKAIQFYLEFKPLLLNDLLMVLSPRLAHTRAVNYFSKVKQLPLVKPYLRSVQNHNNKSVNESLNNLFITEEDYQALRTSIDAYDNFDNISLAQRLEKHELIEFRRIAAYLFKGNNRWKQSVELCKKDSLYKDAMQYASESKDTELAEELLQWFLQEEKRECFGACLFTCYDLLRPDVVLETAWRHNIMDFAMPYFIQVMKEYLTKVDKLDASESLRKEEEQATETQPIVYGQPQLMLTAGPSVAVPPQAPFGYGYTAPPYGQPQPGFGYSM
Sequence of Inositol polyphosphate 5-phosphatase OCRL (Homo sapiens), Q01968 L73S (Q01968 whole entry L73S): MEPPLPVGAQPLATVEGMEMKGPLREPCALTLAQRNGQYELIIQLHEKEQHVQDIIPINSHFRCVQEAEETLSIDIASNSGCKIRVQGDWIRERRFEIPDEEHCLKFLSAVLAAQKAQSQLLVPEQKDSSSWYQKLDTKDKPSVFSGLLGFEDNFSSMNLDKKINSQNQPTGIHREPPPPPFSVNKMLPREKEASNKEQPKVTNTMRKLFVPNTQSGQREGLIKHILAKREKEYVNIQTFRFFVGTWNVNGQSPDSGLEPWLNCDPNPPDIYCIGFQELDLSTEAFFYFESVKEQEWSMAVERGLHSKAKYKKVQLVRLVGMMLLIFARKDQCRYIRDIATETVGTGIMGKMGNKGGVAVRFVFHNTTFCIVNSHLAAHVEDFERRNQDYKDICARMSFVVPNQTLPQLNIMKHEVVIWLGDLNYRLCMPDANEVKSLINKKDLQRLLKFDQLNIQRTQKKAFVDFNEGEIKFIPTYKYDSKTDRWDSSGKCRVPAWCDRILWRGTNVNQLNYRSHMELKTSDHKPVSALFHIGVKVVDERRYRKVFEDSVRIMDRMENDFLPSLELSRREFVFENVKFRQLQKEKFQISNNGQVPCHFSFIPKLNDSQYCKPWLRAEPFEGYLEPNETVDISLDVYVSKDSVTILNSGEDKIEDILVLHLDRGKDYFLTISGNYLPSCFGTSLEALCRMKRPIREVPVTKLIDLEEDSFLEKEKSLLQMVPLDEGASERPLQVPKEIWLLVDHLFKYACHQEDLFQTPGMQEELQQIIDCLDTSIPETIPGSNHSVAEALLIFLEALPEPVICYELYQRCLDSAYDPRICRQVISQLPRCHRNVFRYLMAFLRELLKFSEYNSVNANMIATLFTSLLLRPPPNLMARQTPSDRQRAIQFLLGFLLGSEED
Sequence of Inositol polyphosphate 5-phosphatase OCRL (Homo sapiens), Q01968 I74Q (Q01968 whole entry I74Q): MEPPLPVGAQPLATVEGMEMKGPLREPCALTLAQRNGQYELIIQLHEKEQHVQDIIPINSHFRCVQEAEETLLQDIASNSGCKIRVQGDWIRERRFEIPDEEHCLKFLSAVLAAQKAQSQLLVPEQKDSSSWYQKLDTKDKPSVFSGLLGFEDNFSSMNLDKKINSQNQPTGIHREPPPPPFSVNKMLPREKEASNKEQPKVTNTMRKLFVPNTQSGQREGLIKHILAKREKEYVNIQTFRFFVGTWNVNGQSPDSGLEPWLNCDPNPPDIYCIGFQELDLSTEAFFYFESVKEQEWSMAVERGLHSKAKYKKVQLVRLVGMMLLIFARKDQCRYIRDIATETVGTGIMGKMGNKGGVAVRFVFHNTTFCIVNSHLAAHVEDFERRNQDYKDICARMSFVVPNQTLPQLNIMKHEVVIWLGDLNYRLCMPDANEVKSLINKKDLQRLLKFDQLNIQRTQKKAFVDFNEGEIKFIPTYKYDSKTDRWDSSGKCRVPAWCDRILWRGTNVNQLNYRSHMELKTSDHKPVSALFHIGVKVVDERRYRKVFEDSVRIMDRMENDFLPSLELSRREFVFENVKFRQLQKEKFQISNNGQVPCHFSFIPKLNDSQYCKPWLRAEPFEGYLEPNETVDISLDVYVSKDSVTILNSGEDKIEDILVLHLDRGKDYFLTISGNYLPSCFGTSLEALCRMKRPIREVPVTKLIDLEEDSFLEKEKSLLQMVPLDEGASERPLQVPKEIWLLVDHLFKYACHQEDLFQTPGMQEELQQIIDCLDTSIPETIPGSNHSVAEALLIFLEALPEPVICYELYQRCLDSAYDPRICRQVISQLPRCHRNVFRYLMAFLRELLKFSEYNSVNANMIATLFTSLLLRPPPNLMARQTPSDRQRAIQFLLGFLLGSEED
Sequence of Inositol polyphosphate 5-phosphatase OCRL (Homo sapiens), Q01968 I76Q (Q01968 whole entry I76Q): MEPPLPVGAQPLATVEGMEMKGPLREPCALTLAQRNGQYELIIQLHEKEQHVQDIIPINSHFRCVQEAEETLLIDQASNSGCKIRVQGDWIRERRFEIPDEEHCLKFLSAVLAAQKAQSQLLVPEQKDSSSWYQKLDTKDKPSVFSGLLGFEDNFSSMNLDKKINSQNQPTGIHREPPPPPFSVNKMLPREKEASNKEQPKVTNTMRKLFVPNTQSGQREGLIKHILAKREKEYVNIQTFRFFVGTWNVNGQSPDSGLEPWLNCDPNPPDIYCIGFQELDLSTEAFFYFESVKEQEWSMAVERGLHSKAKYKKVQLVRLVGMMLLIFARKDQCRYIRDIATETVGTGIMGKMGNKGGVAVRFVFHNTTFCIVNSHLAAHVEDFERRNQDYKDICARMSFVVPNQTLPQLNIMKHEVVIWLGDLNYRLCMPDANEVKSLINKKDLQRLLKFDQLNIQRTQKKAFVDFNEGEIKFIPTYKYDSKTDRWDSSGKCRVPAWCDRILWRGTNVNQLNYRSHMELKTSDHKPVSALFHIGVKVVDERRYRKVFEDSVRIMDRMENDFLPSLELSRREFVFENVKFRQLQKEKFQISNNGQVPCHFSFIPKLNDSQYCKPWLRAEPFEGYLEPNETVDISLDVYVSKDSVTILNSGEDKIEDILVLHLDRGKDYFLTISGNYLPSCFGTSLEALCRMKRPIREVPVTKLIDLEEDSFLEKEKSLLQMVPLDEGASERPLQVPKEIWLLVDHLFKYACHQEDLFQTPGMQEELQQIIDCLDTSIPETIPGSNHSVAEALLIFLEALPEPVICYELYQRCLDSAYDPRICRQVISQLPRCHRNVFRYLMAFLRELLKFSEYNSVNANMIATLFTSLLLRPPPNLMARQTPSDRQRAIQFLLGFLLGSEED

Inositol polyphosphate 5-phosphatase OCRL (Homo sapiens), Q01968 L73S
effect of a mutation on the interaction (clh1_rat Cltc [1]): disrupting interaction

Inositol polyphosphate 5-phosphatase OCRL (Homo sapiens), Q01968 I74Q
effect of a mutation on the interaction (clh1_rat Cltc [2]): disrupting interaction

Inositol polyphosphate 5-phosphatase OCRL (Homo sapiens), Q01968 I76Q
effect of a mutation on the interaction (clh1_rat Cltc [3]): disrupting interaction
